The text below walks through data of paper PMC12048173.

The target of the test is Full-length Stigmatella aurantiaca bacteriophytochrome 2 (SaBphP2), Pr state (Stigmatella aurantiaca). The test is described as follows: cryo-EM structure; single-particle cryo-EM, Spotiton nanowire grid, 0.4 mg/ml, pre-illuminated with 740 nm light (pure Pr state); global resolution 6.0 Å; subunits fitted as rigid units, not refined.

One may read the stoichiometry N as the number of molecules, sites or subunits per partner or assembly.

For the substance “Full-length Stigmatella aurantiaca bacteriophytochrome 2 (SaBphP2), Pr state (natural protein)”, the stoichiometry N worked out at 2.
